The source of these data is US20260069689A1 (Regeneron, published 2026).

The target of experiment [1] is T1, SARS-COV-2 RBD extracellular domain expressed with a C-terminal mouse IgG2a Fc (SARS-CoV-2). Kind of experiment: Biacore SPR, mAb captured on anti-hFc, 25 C. A general note: SPR reads the build-up and loss of mass on a sensor chip optically.
Experiment [2] has as its target T1, SARS-COV-2 RBD extracellular domain …. Put plainly: Biacore SPR, mAb captured on anti-hFc, 37 C.

A value given as a limit tells only on which side of the number the result lay.

B1: mAb14280 (antibody, V domains shown)
VH: QVQLVQSGAEVKKPGASVRVSCKASGYTFTGNYIHWVRQAPGQGLEWMAWINPNSGGKNYAQKFQGRVTLTRDTSVNTAYMELSRLRSDDTAMYYCARDVNYNILTGPGGLWGQGTLVTVSS
VL: QSALTQPPSASGSPGQSVTISCTGTSSDVGGYNFVSWYQQHPGKAPKLMIYEVSKRPSGVPDRFSGSKSGNTASLTVSGLQAEDEADYYCSSYAGSNNFVFGTGTKVTVLG
B1: in experiment [1], binding was put at a Kd of 0.123 nM; the koff (usually the rate constant with which the complex falls apart) is 0.00037 s⁻¹; the on-rate (kon) (commonly the rate constant with which the complex forms) was 3.02e+06 M⁻¹ s⁻¹; the t½ (in general, the time in which the quantity being followed falls by half) was determined as 31.2 min. For the same molecule, in experiment [2], binding was characterised by a dissociation constant (Kd) of 0.264 nM, the koff turned out to be 0.000772 s⁻¹, the kon is 2.92e+06 M⁻¹ s⁻¹ and the t½ stood at 15 min.

B2: mAb14285 (antibody, V domains shown)
VH: QVQLVQSGAEVKKPGASVKVSCKASGYTFTGYFIHWVRQAPGQGLEWMGWISPISGGTNYAQKFQGRVTVTRDTSITTAYMELSRLTSDDTAVYHCAREGGTWKGDFDYWGQGTLVTVSS
VL: QSALTQPASVSGSPGQSITISCTGTSSDVESYNLVSWYQQHPGKAPKLMIYEGSKRPSGVSNRFSGSKSGNTASLTISGLQAEDEADYYCSSYAGSSTWVFGGGTKLTVLG
Regarding B2, in experiment [1], the Kd (as a rule, the concentration at which binding is half-saturated) worked out at 0.0868 nM; the koff worked out at 0.000502 s⁻¹; the kon worked out at 5.78e+06 M⁻¹ s⁻¹; the t½ worked out at 23 min. In experiment [2], this molecule registered a Kd of 0.231 nM, a koff of 0.00103 s⁻¹, a kon of 4.45e+06 M⁻¹ s⁻¹ and a t½ of 11.2 min.

B3: mAb15156 (antibody, V domains shown)
VH: QLQLQESGPGLVKSSETLSLTCTVSASITGSTYYWGWIRQPPGKGLEWIGSIYYSGTTYYKASLKSRVTISVDTSKNQFSLKLTSVTVADTAVYYCVSHLLGNYHKYGMDVWGQGTTVTVSS
VL: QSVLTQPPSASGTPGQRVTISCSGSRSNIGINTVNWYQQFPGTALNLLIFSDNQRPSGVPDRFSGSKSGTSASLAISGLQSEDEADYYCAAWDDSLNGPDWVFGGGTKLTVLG
In experiment [1], B3 showed a Kd of 0.0369 nM, a koff of 5.22e-05 s⁻¹, a kon of 1.41e+06 M⁻¹ s⁻¹ and a t½ of 221 min. Also, in experiment [2], the Kd was 0.63 nM, the off-rate constant (koff) came out at 0.000112 s⁻¹, the kon was found to be 178000 M⁻¹ s⁻¹ and the t½ was 103 min.

B4: mAb14256 (antibody, V domains shown)
VH: QVQLQESGPGLVKPSETLSLTCTVSGGSISSHYWSWIRQPPGKGLEWIGYIYYSGSSNYNPSLKSRVTISVDTSKNQFSLKLNSVTAADTAVYYCARHYDILTGFDWFDPWGQGTLVTVSS
VL: QSVLTQPPSVSGAPGQRVTISCTGSSSNIGTHYDVHWYQQLPGTAPKLLIYGNSNRPSGVPDRFSGSKSGTSASLAITGLQAEDEADYYCQSFDNSLTAPYVFGTGTKVTVLG
With B4, in experiment [1], the Kd was found to be 0.0638 nM, the koff was found to be 0.000181 s⁻¹, the kon came to 2.84e+06 M⁻¹ s⁻¹ and the t½ amounted to 63.7 min. In experiment [2], this molecule returned a Kd of 0.267 nM, a koff of 0.000473 s⁻¹, a kon of 1.78e+06 M⁻¹ s⁻¹ and a t½ of 24.4 min.

B5: mAb15158 (antibody, V domains shown)
VH: EVQLVESGGGLVQPGGSLRLSCAASGFSFSSNWMSWVRQAPGKGLEWVGNINQDGSEKYYVDSVEGRFTISRDNAKKSLYLQMNSLRAEDTAVYYCARDLGVLWFGDFVDWGQGALVTVSS
VL: DIQMTQSPSSLSASVGDRVTITCRASQAISNSLAWYQQKPGKAPKLLLYAASTLESGVPSRFSGSGSGTDYTLTISSLQPEDFATYYCLQYYGSPRTFGQGTKVEIKR
For B5, in experiment [1], the Kd was not above 0.0221 nM, the koff was not above 1e-05 s⁻¹, the on-rate (kon) was 453000 M⁻¹ s⁻¹ and the t½ is 1160 min. In experiment [2], this molecule gave a Kd of 0.17 nM, a koff of 2.9e-05 s⁻¹, a kon of 171000 M⁻¹ s⁻¹ and a t½ of 398 min.

B6: mAb15157 (antibody, V domains shown)
VH: EVQLVESGGALVQPGGSLRLSCAASGFPFTIYAMTWVRQAPGKGLEWVSVITGSGDSTYYADSVKGRFTISRDNSKNTLYLQMNSLRAEDTAVYYCVKTGEGFFYYYYGMDVWGQGTTVTVSS
VL: QSVLTQPPSVSAAPGQKVTISCSGSSSNIGNSYISWYQQLPGTAPKLLIYVNNKRPSGIPDRFSGSKSGTSATLGITGLQTGDEADYYCGTWDSSLSAGVFGSGTKVTVLG
In experiment [1], B6 returned a Kd of 0.187 nM, a koff of 6.67e-05 s⁻¹, a kon of 357000 M⁻¹ s⁻¹ and a t½ of 173 min. In addition, in experiment [2], the Kd amounted to 0.116 nM, the koff stood at 0.000107 s⁻¹, the on-rate constant (kon) was found to be 922000 M⁻¹ s⁻¹ and the t½ turned out to be 108 min.

B7: mAb14281 (antibody, V domains shown)
VH: QVQLVQSGADVKKPGASVKVSCKTSGYIFTGYYIHWVRQAPGQGLEWMGWINPNSGGTNSAQKFQGRVTMTRDTSISTVYMELSRLRSDDTAVYYCAKSNSFSVLDYNFDYWGQGTLVTVSS
VL: SSELTQDPAVSVALGQTVRITCQGDSLRSYYASWYQQKPGQAPVLVIYDKNNRPSGIPDRFSGSSSGNTASLTITGAQAEDEADYYCNSRDSSRNHLVVFGGGTKLTVLG
As for B7, in experiment [1], binding was characterised by a dissociation constant (Kd) of 0.146 nM, the koff came out at 0.000213 s⁻¹, the kon was 1.46e+06 M⁻¹ s⁻¹ and the t½ amounted to 54.3 min. In experiment [2], this molecule registered a Kd of 0.271 nM, a koff of 0.000365 s⁻¹, a kon of 1.34e+06 M⁻¹ s⁻¹ and a t½ of 31.7 min.

B8: mAb15160 (antibody, V domains shown)
VH: EVQLVESGGGLVQPGGSLRLSCSASGFTFSRYAMYWVRQAPGKGLEYVSAISSDGGSTYDADSVKGRFTISRANSKNTLYLQMSSLRAEDTAVYYCVKGLRELLYYYYGMDVWGQGTTVTVSS
VL: DIQMTQSPSSLSASVGDRVTITCRAGQSISSFLNWYQQKPGKAPKLLIYAASSLQSGVPSRFSGSGSGTDFTLTISSLQPEDFATYYCQQSYITPFTFGPGTKVDIKR
With B8, in experiment [1], the Kd came out at 0.0406 nM, the koff is 1.05e-05 s⁻¹, the kon was determined as 258000 M⁻¹ s⁻¹ and the t½ stood at 1100 min. In experiment [2], this molecule had a Kd of 0.181 nM, a koff of 7.9e-05 s⁻¹, a kon of 436000 M⁻¹ s⁻¹ and a t½ of 146 min.

B9: mAb14234 (antibody, V domains shown)
VH: QVQLVESGGGVVQPGRSLRLSCAASGFTFSSYGIHWVRQAPGKGLEWVAIIWYDGSEKYYADSVKGRFTISRDNSKNTLFLQMNSLEAEDTAVYYCARGPDLLTGYYNYFYYGMDVWGQGTTVTVSS
VL: QSVLTQPPSVSGAPGQRVTISCTGSSSNIGIGYDVHWYQQLPGTVPKLLIYGNTNRPSGVPDRFSGSKSGTSASLAITGLQAEDEADYYCQSYDSSLSSYVFGTGTKVTVLG
Regarding B9, in experiment [1], binding was characterised by a dissociation constant (Kd) of 0.119 nM, the koff is 0.000121 s⁻¹, the kon amounted to 1.02e+06 M⁻¹ s⁻¹ and the t½ came to 95.2 min. Moreover, in experiment [2], the Kd stood at 0.41 nM, the koff was 0.000402 s⁻¹, the kon is 980000 M⁻¹ s⁻¹ and the t½ was found to be 28.8 min.

B10: mAb14292 (antibody, V domains shown)
VH: EVQLVESGGGLVQPGGSLRLSCVASGFAFSTYEMNWVRQAPGKGLEWVSYISSSGSTIYYADSVKGRLTISRDNVKNSLYLQMNSLRVEDTAIYYCARDAIRNNDILTDPATFDPWGQGTLVTVSS
VL: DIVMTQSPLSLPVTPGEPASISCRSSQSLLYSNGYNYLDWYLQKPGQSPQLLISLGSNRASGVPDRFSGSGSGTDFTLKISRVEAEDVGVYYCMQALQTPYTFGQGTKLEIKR
Take B10: in experiment [1], the Kd came to 33.6 nM, the koff is 0.0351 s⁻¹, the kon was 1.04e+06 M⁻¹ s⁻¹ and the t½ came out at 0.3 min. Moreover, in experiment [2], binding was characterised by a dissociation constant (Kd) of 34.6 nM, the koff came out at 0.0644 s⁻¹, the kon came to 1.86e+06 M⁻¹ s⁻¹ and the t½ worked out at 0.2 min.

B11: mAb15159 (antibody, V domains shown)
VH: EVQLVESGGGLVQPGGSLRLSCAASGITVSSNYMTWVRQAPGKGLEWVSLIYSGGSTFYADSVRGRFTISRDNSKNTLYLQMNSLRAEDTAVYYCARDLVVYGMDVWGQGTTVTVSS
VL: DIQLTQSPSSLSASVGDRVTITCRASQGISSYLAWYQQKPGKAPKLLIYAASTLQSGVPSRFSGSGSGTDFTLTISSLQPEDFATYYCQHLNSDPHTFGQGTKLEIKR
In experiment [1], B11 showed a Kd of 0.0172 nM, a koff of 1.19e-05 s⁻¹, a kon of 691000 M⁻¹ s⁻¹ and a t½ of 971 min. Moreover, in experiment [2], the Kd came to 0.135 nM, the koff was 2.99e-05 s⁻¹, the kon came to 220000 M⁻¹ s⁻¹ and the t½ was found to be 386 min.

B12: mAb14230 (antibody, V domains shown)
VH: EVQLVESGGGLIQPGRSLRLSCAASGFTFDDYAMHWVRQAPGKGLEWVSGISWNSVSIDYADSVKGRFTISRDNAKNSLYLQMTSLTVEDTALYYCAKAFGYETLTGSDYFAYWGPGTLVTVSS
VL: EIVLTQSPGTLSLSPGERATLSCRASQTVISTYLAWYQQKPGQSPRLLIYGASSRATGIPDRFSGSGSGTDFTLTISRLEPEDFAVYYCQQYGSSPQLTFGGGTKVEIKR
For B12, in experiment [1], the Kd worked out at 0.142 nM, the koff came to 0.000286 s⁻¹, the kon came to 2e+06 M⁻¹ s⁻¹ and the t½ turned out to be 40.5 min. In experiment [2], this molecule yielded a Kd of 0.268 nM, a koff of 0.00049 s⁻¹, a kon of 1.82e+06 M⁻¹ s⁻¹ and a t½ of 23.6 min.

B13: mAb14282 (antibody, V domains shown)
VH: QVQLVQSGAEVKKPGASVKVSCKASGYIFTDHYMHWVRQAPGQGLEWMGWINPNSGATNYAQNFQGRVTMTRDTSIITVYMELSRLRSDDTAVYYCARDSSPYMIRYTMDVWGQGTTITVSS
VL: QSALTQPASVSGSPGQSITISCTGTSSDVGSYNLVSWYQQHPGKAPKLMIYELTKRPSGVSNRFSGSKSGNTASLTISGLQAEDEADYYCSSYRGSVTDVVFGGGTKLTVLG
In experiment [1], B13 yielded a Kd of 0.186 nM, a koff of 0.000403 s⁻¹, a kon of 2.17e+06 M⁻¹ s⁻¹ and a t½ of 28.7 min. Also, in experiment [2], binding was put at a Kd of 0.247 nM, the koff stood at 0.000546 s⁻¹, the kon turned out to be 2.21e+06 M⁻¹ s⁻¹ and the t½ is 21.1 min.

B14: mAb14232 (antibody, V domains shown)
VH: QITLKESGPTLVKPTQTLTLTCTFSGFSLSASGVGVGWIRQPPGKALEWLALIYWDDDKRYSPSLKSRLTITKDTSKNQVVLTMTNMDPVDTATYYCAQHKVATIFDYWGQGTLVTVSS
VL: QSALTQPPSASGSPGQSVTISCTATSSDVGNYNYVSWYQQHPGKAPKLMIYEVTKRPSGVPDRFSGSKSGNTASLTVSGLQAEDEADYYCSSYAGSWGVFGGGTKLTVLG
Turning to B14, in experiment [1], binding was put at a Kd of 0.878 nM, the koff is 0.00173 s⁻¹, the kon came to 1.97e+06 M⁻¹ s⁻¹ and the t½ came out at 6.7 min. Also, in experiment [2], the Kd is 0.893 nM, the koff is 0.00188 s⁻¹, the kon is 2.1e+06 M⁻¹ s⁻¹ and the t½ amounted to 6.1 min.
